Publication PMC3794980

Experiments:
[1] = biological target: HLA-DR DRB1*0101 (human (endogenous in EBV transformed cell lines)); experiment: radioligand binding
[2] = biological target: HLA-DR DRB1*0802 (human (endogenous in EBV transformed cell lines)); experiment: radioligand binding
[3] = biological target: HLA-DR DRB1*0901 (human (endogenous in EBV transformed cell lines)); experiment: radioligand binding
[4] = biological target: HLA-DR DRB1*1302 (human (endogenous in EBV transformed cell lines)); experiment: radioligand binding
[5] = biological target: HLA-DR DRB1*1501 (human (endogenous in EBV transformed cell lines)); experiment: radioligand binding
[6] = biological target: HLA-DR DRB3*0101 (human (endogenous in EBV transformed cell lines)); experiment: radioligand binding
[7] = biological target: HLA-DR DRB5*0101 (human (endogenous in EBV transformed cell lines)); experiment: radioligand binding
[8] = biological target: HLA-DR DRB1*0401 (human (endogenous in EBV transformed cell lines)); experiment: radioligand binding
[9] = biological target: HLA-DR DRB1*0404 (human (endogenous in EBV transformed cell lines)); experiment: radioligand binding
[10] = biological target: HLA-DR DRB1*0405 (human (endogenous in EBV transformed cell lines)); experiment: radioligand binding
[11] = biological target: HLA-DR DRB1*0701 (human (endogenous in EBV transformed cell lines)); experiment: radioligand binding
[12] = biological target: HLA-DR DRB4*0101 (human (endogenous in EBV transformed cell lines)); experiment: radioligand binding
[13] = biological target: HLA-DR DRB1*0301 (human (endogenous in EBV transformed cell lines)); experiment: radioligand binding
[14] = biological target: HLA-DR DRB1*1101 (human (endogenous in EBV transformed cell lines)); experiment: radioligand binding
HLA-A2:Ig fusion protein = experiment: fluorescence polarisation
[15] = biological target: HLA class II molecule DRB1*1501 (human (endogenous in EBV transformed homozygous cell lines)); experiment: radioligand binding

Row | Substance | IC50 [1] | IC50 [2] | IC50 [3] | IC50 [4] | IC50 [5] | IC50 [6] | IC50 [7] | IC50 [8] | IC50 [9] | IC50 [10] | IC50 [11] | IC50 [12] | IC50 [13] | IC50 [14] | IC50 (HLA-A2:Ig fusion protein) | IC50 [15]
1 | DENV3 NS5 765-779 (peptide) | 40.8 nM | 7.85 nM | 61.2 nM | 4.92 nM | 118 nM | 127 nM | 726 nM |  |  |  |  |  |  |  |  | 
2 | DENV3 NS1 169-183 (peptide) | 226 nM |  | 650 nM |  | 441 nM | 747 nM |  | 474 nM | 457 nM | 277 nM | 136 nM | 878 nM |  |  |  | 
3 | DENV3 NS5 769-785 (peptide) | 27.9 nM | 27.6 nM | 61.2 nM | 4.5 nM |  |  | 113 nM | 3.61 nM | 92.6 nM | 15.9 nM |  | 212 nM | 409 nM | 78.7 nM |  | 
4 | DENV3 NS5 221-237 (peptide) | 3.97 nM | 5.83 nM | 44.9 nM | 65.4 nM | 19.9 nM |  |  | 1.05 nM | 84.3 nM | 25 nM | 20.7 nM | 60.4 nM | 15 nM | 30.9 nM |  | 
5 | DENV3 NS5 719-735 (peptide) | 214 nM |  |  | 229 nM |  |  |  |  | 190 nM | 22.5 nM |  |  | 44.1 nM |  |  | 
6 | DENV3 NS5 714-729 (peptide) |  |  | 690 nM | 10.6 nM | 66.3 nM |  | 245 nM |  |  |  |  |  | 36.8 nM | 671 nM |  | 
7 | DENV3 NS5 233-248 (peptide) | 108 nM | 159 nM |  | 34 nM | 307 nM |  | 413 nM | 57 nM |  | 699 nM |  | 617 nM |  | 15.9 nM |  | 
8 | DENV3 NS3 353-367 (peptide) |  |  |  |  |  |  |  |  | 858 nM | 884 nM | 87.4 nM |  |  |  |  | 
9 | DENV3 NS3 433-447 (peptide) |  |  |  | 23.7 nM |  | 134 nM |  |  |  |  |  |  | 68.6 nM |  |  | 
10 | DENV3 Env_(106–114) (peptide) |  |  |  |  |  |  |  |  |  |  |  |  |  |  | 2.9 nM | 
11 | DENV3 NS3 297-311 (peptide) |  |  |  |  |  |  |  | 16.4 nM | 127 nM | 90 nM | 77.2 nM |  |  | 35.3 nM |  | 
12 | DENV3 NS3 237-251 (peptide) |  | 35.8 nM | 928 nM |  | 638 nM |  | 12.9 nM | 13.1 nM | 310 nM | 150 nM |  |  |  | 807 nM |  | 
13 | DENV3 Env_(231–245) (peptide) |  |  |  |  |  |  |  |  |  |  |  |  |  |  |  | < 20 nM
14 | DENV3 NS5 866-882 (peptide) |  | 7.14 nM | 66.1 nM | 543 nM | 148 nM |  |  |  |  |  |  |  | 178 nM | 421 nM |  | 
15 | DENV3 NS3 277-291 (peptide) | 383 nM | 396 nM |  | 68.2 nM |  | 4.42 nM |  | 142 nM |  | 402 nM |  |  | 37.3 nM |  |  | 
16 | DENV3 NS5 477-493 (peptide) | 11.7 nM |  | 78.7 nM |  |  | 25.9 nM | 56.2 nM | 67.1 nM | 124 nM | 54.4 nM | 26.2 nM | 274 nM |  |  |  | 
17 | DENV3 Env_(126–140) (peptide) |  |  |  |  |  |  |  |  |  |  |  |  |  |  |  | < 20 nM
18 | DENV3 NS5 564-580 (peptide) | 18.8 nM |  | 100 nM | 11.3 nM | 28 nM | 576 nM | 305 nM | 390 nM |  |  |  |  | 222 nM | 344 nM |  | 
19 | DENV3 Envelope 156-170 (peptide) | 463 nM |  |  |  |  |  |  | 7.66 nM | 444 nM | 45.5 nM |  | 707 nM |  |  |  | 
20 | DENV3 NS3_(357–371) (peptide) |  |  |  |  |  |  |  |  |  |  |  |  |  |  |  | < 20 nM
21 | DENV3 NS3 309-323 (peptide) | 27 nM | 30.8 nM | 129 nM |  | 363 nM |  |  | 2.36 nM | 350 nM | 32.1 nM | 47.8 nM | 9.15 nM |  |  |  | 
22 | DENV3 Envelope 161-175 (peptide) |  | 62.9 nM |  | 68.3 nM |  |  |  | 115 nM |  | 691 nM | 509 nM |  |  |  |  | 
23 | DENV3 Envelope 41-55 (peptide) | 2.33 nM | 5.08 nM | 132 nM | 27.2 nM |  |  | 684 nM |  |  |  | 3.13 nM | 6.51 nM |  |  |  | 
24 | DENV4 inter-serotype variant of NS3_(399–407) (peptide) |  |  |  |  |  |  |  |  |  |  |  |  |  |  | 61 nM | 
25 | DENV3 NS1 117-131 (peptide) |  | 56.3 nM |  |  |  | 534 nM |  | 28.1 nM | 695 nM | 285 nM |  |  |  |  |  | 
26 | DENV3 NS1 85-99 (peptide) | 55.8 nM |  | 41.9 nM | 483 nM | 21.2 nM |  |  | 87.7 nM |  |  | 70.1 nM |  | 533 nM | 807 nM |  | 
27 | DENV3 NS5 747-763 (peptide) | 53.7 nM |  | 393 nM |  | 167 nM |  |  |  | 111 nM | 38.6 nM |  |  |  |  |  | 
